Test results reported in US7419799 (GENETECH, dated 2008).

What was measured:
SHP2 [1] = target: T1, SHP2 (human, UniProt Q06124 2-593); experiment: co-immunoprecipitation from isolated human CD4+ T cells (untreated), Western blot
T1 sequence (looked up): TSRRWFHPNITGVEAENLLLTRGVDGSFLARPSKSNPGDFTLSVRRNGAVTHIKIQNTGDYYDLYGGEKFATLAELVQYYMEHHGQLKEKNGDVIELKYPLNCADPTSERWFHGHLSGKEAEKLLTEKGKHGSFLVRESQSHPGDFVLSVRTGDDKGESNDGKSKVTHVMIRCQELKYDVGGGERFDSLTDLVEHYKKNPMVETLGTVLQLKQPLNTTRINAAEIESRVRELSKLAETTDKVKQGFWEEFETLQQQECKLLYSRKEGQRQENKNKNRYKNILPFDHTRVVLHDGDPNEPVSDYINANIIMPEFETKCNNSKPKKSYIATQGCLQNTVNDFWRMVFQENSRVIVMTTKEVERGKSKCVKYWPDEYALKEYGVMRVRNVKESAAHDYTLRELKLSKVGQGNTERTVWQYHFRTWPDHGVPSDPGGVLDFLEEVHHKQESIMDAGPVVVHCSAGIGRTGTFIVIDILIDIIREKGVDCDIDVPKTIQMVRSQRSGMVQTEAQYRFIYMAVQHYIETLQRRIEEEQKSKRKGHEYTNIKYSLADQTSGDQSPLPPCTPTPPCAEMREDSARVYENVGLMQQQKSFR

SHP1 [2] = target: T2, SHP1 (human, UniProt P29350 1-595); experiment: as above
SHP2 [3] = target: T1, SHP2; experiment: co-immunoprecipitation from isolated human CD4+ T cells (CD3 and PRO20080 cross-linked), Western blot
SHP1 [4] = target: T2, SHP1; experiment: as above
[5] = target: the molecule itself; experiment: BIAcore, homotypic interaction of His-tagged PRO20080
Protocol: Lastly, a BIAcore® assay was performed to determine if a His-tagged PRO20080 would associate with itself. The association rate can be determined by any method in which formation of the complex may be observed as a function of time. In the BIAcore® analysis, in which one measures the association of the protein to an protein that has been immobilized on a biosensor surface (reviewed by Rich & Myszka, Curr. Opin. Biotechnol. 11:54-61 (2000)).

T2 sequence (P29350 whole entry): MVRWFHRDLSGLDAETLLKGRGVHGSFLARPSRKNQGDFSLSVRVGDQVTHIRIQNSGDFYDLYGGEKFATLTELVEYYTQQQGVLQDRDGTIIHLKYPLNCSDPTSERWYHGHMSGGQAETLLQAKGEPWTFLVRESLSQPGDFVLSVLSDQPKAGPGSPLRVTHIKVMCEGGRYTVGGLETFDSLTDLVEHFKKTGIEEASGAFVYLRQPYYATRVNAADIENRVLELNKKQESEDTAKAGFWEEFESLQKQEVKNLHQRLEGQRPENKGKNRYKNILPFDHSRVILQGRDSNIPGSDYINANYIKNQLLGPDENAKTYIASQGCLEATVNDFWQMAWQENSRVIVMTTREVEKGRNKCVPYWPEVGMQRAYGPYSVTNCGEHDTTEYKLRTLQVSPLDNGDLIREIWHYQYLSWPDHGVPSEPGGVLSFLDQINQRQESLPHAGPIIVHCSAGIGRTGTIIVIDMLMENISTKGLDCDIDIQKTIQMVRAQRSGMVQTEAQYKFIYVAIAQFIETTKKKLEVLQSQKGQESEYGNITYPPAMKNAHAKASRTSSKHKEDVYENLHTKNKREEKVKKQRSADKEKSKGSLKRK

B1: wild type PRO20080 (full-length, expressed in cells) (receptor)
chain: FGPGNVVSQSSLTPLMVNGILGESVTLPLEFPAGEKVNFITWLFNETSLAFIVPHETKSPEIHVTNPKQGKRLNFTQSYSLQLSNLKMEDTGSYRAQISTKTSAKLSSYTLRILRQLRNIQVTNHSQLFQNMTCELHLTCSVEDADDNVSFRWEALGNTLSSQPNLTVSWDPRISSEQDYTCIAENAVSNLSFSVSAQKLCEDVKIQYTDTKMILFMVSGICIVFGFIILLLLVLRKRRDSLSLSTQRTQGPAESARNLEYVSVSPTNNTVYASVTHSNRETEIWTPRENDTITIYSTINHSKESKPTFSRATALDNVV
notes: also called PRO20080 receptor
B1: no binding (SHP2 [1]); no binding (SHP1 [2]).

B2: phosphorylated PRO20080 (receptor)
chain: B1 chain
modifications: tyrosine-phosphorylated (detected with anti-phosphotyrosine antibody; sites not stated)
notes: The phosphorylated residues are not identified; also called PRO20080 in pervanadate treated cells; PRO20080 after CD3 and PRO20080 cross linking
B2: no binding (SHP2 [3]); no binding (SHP1 [4]).

B3: His-tagged PRO20080 (receptor)
chain: QSSLTPLMVNGILGESVTLPLEFPAGEKVNFITWLFNETSLAFIVPHETKSPEIHVTNPKQGKRLNFTQSYSLQLSNLKMEDTGSYRAQISTKTSAKLSSYTLRILRQLRNIQVTNHSQLFQNMTCELHLTCSVEDADDNVSFRWEALGNTLSSQPNLTVSWDPRISSEQDYTCIAENAVSNLSFSVSAQKLCEDVKIQYTDTKM
notes: In the BIAcore assay the same protein served as both the immobilized and the soluble partner; not shown: His tag
For B3, the Kd [5] was > 100 µM.
